From publication PMC9482650, “Quantitative fragmentomics allow affinity mapping of interactomes” (Nature Communications, 2022)
Values belong to the binder of their own block, whether it stands above or below them.

Key:
Experiment in all cases: holdup assay
Set-up in all cases: key: below the threshold = too weak to quantify, mostly under pKd 3.1 to 4
DLG4_3, P78352 = target: DLG4_3, P78352
GRIP2_7, Q9C0E4 = target: GRIP2_7, Q9C0E4
PDZD2_2, O15018 = target: T1, PDZD2_2, O15018
T1 sequence (O15018 329-429, limits assumed, looked up): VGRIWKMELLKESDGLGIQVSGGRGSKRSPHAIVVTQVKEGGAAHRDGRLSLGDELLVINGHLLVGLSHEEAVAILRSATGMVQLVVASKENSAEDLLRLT

APBA1_1, Q02410 = target: T2, APBA1_1, Q02410
T2 sequence (Q02410 651-752, limits assumed, looked up): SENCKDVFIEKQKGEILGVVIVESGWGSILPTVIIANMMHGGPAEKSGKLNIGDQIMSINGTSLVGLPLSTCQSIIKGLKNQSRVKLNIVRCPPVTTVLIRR

GIPC2, Q8TF65 = target: GIPC2, Q8TF65
GIPC2, Q8TF65, sequence (Q8TF65 112-203): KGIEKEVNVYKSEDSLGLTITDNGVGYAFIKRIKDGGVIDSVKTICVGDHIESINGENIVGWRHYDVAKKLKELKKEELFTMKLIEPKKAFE

GRIP2_4, Q9C0E4 = target: GRIP2_4, Q9C0E4
GRIP2_4, Q9C0E4, sequence (Q9C0E4 446-548): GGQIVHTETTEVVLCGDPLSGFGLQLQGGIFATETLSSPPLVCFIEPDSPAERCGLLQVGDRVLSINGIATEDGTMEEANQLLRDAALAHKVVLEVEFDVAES

APBA1_2, Q02410 = target: T3, APBA1_2, Q02410
T3 sequence (Q02410 742-832, limits assumed, looked up): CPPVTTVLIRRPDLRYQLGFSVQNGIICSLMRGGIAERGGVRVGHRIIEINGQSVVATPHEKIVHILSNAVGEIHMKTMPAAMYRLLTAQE

IL16_3, Q14005 = target: IL16_3, Q14005
IL16_3, Q14005, sequence (Q14005 1107-1207): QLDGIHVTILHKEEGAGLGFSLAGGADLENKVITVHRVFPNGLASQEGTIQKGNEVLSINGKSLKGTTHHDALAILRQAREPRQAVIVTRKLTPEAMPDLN

MPDZ_12, O75970 = target: T4, MPDZ_12, O75970
T4 sequence (O75970 1857-1958, limits assumed, looked up): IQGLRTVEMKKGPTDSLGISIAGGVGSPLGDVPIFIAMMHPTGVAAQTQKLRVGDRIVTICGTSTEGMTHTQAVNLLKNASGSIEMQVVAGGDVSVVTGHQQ

DLG1_1, Q12959 = target: DLG1_1, Q12959
MAST2, Q6P0Q8 = target: MAST2, Q6P0Q8
MAST2, Q6P0Q8, sequence (Q6P0Q8 1099-1202): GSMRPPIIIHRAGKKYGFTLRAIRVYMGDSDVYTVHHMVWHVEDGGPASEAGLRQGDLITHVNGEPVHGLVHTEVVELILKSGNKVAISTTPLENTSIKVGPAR

LNX2_3, Q8N448 = target: T5, LNX2_3, Q8N448
T5 sequence (Q8N448 463-564, limits assumed, looked up): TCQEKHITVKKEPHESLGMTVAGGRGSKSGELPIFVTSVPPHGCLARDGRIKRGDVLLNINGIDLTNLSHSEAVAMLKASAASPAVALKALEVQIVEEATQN

SCRIB_2, Q14160 = target: SCRIB_2, Q14160
SCRIB_2, Q14160, sequence (Q14160 857-960): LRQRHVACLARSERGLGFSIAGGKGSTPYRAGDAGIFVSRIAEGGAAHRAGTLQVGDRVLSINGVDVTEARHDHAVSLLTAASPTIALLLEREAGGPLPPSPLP

SNTG2, Q9NY99 = target: T6, SNTG2, Q9NY99
T6 sequence (Q9NY99 68-166, limits assumed, looked up): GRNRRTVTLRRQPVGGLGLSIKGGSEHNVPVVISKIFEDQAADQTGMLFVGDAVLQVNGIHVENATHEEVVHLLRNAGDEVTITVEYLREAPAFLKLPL

DVL3, Q92997 = target: T7, DVL3, Q92997
T7 sequence (Q92997 244-331, limits assumed, looked up): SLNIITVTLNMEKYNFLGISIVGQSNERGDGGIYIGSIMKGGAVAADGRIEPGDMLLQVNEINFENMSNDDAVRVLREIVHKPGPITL

FRMPD2_1, Q68DX3 = target: FRMPD2_1, Q68DX3
FRMPD2_1, Q68DX3, sequence (Q68DX3 770-861): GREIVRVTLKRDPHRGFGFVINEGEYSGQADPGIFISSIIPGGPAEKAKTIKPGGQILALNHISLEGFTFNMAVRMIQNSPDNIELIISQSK

Inadl_8, Q8NI35 = target: Inadl_8, Q8NI35
Inadl_8, Q8NI35, sequence (Q8NI35 1425-1530): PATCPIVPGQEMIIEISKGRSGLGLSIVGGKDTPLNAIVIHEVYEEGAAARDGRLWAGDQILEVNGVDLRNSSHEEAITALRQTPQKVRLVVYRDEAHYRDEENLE

DLG4_1, P78352 = target: DLG4_1, P78352
DLG4_1, P78352, sequence (P78352 62-152): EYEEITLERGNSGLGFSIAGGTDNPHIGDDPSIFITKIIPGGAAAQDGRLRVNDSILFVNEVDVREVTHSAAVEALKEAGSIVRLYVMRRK

PTPN3, P26045 = target: PTPN3, P26045
PTPN3, P26045, sequence (P26045 505-587): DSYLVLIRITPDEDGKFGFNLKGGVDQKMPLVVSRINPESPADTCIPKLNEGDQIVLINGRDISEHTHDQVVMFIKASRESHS

Inadl_10, Q8NI35 = target: Inadl_10, Q8NI35
Inadl_10, Q8NI35, sequence (Q8NI35 1673-1763): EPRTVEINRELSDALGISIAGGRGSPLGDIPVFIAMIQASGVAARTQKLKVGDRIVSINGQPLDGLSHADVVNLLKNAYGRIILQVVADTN

NHERF4_4, Q86UT5 = target: NHERF4_4, Q86UT5
NHERF4_4, Q86UT5, sequence (Q86UT5 464-550): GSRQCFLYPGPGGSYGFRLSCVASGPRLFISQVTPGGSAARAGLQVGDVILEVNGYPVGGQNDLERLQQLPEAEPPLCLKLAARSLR

LIMK2, P53671 = target: LIMK2, P53671
LIMK2, P53671, sequence (P53671 143-248): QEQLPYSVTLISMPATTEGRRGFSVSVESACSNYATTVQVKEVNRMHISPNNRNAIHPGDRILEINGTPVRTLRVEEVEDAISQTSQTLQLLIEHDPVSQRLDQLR

NHERF3_4, Q5T2W1 = target: T8, NHERF3_4, Q5T2W1
T8 sequence (Q5T2W1 373-468, limits assumed, looked up): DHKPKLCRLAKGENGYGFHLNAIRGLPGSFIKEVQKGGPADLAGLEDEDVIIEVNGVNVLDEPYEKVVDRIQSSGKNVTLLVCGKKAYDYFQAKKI

GRIP1_5, Q9Y3R0 = target: T9, GRIP1_5, Q9Y3R0
T9 sequence (Q9Y3R0 568-668, limits assumed, looked up): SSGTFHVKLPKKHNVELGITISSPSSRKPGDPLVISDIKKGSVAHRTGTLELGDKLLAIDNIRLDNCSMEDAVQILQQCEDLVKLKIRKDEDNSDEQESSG

GORASP2, Q9H8Y8 = target: GORASP2, Q9H8Y8
SNTG1, Q9NSN8 = target: T10, SNTG1, Q9NSN8
T10 sequence (Q9NSN8 52-150, limits assumed, looked up): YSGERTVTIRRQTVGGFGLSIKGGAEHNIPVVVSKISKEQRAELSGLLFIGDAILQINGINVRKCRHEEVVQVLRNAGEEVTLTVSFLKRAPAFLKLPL

LIN7C, Q9NUP9 = target: T11, LIN7C, Q9NUP9
T11 sequence (Q9NUP9 88-185, limits assumed, looked up): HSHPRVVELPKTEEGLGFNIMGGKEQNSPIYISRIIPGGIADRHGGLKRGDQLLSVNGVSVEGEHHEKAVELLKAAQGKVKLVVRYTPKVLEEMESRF

[1] = plain residues with an end cap or a label only (N-terminal biotin on a linker: ahx)
[2] = plain residues with an end cap or a label only (N-terminal biotin on a linker: ado-ado)

DLG4_3, P78352, sequence (P78352 306-403): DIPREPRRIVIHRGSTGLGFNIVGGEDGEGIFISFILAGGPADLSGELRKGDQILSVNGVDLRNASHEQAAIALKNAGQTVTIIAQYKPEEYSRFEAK
GRIP2_7, Q9C0E4, sequence (Q9C0E4 934-1023): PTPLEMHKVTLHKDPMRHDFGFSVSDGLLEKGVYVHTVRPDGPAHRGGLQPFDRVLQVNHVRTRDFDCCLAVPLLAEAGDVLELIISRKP

pKd (DLG4_3, P78352; [1]): 3.78
pKd (GRIP2_7, Q9C0E4; [1]): below the threshold
pKd (PDZD2_2, O15018; [1]): below the threshold
pKd (APBA1_1, Q02410; [1]): below the threshold
pKd (GIPC2, Q8TF65; [1]): below the threshold
pKd (GRIP2_4, Q9C0E4; [1]): below the threshold
pKd (APBA1_2, Q02410; [1]): 3.5
pKd (IL16_3, Q14005; [1]): below the threshold
pKd (MPDZ_12, O75970; [1]): below the threshold
pKd (DLG1_1, Q12959; [1]): below the threshold
pKd (MAST2, Q6P0Q8; [1]): 5.36
pKd (LNX2_3, Q8N448; [1]): below the threshold
pKd (SCRIB_2, Q14160; [1]): below the threshold
pKd (SNTG2, Q9NY99; [1]): below the threshold
pKd (DVL3, Q92997; [1]): below the threshold
pKd (FRMPD2_1, Q68DX3; [1]): 3.77
pKd (Inadl_8, Q8NI35; [1]): below the threshold
pKd (DLG4_1, P78352; [1]): 3.48
pKd (PTPN3, P26045; [1]): 4.45
pKd (Inadl_10, Q8NI35; [1]): 3.61
pKd (NHERF4_4, Q86UT5; [1]): below the threshold
pKd (LIMK2, P53671; [1]): below the threshold
pKd (NHERF3_4, Q5T2W1; [1]): 4.54
pKd (GRIP1_5, Q9Y3R0; [1]): below the threshold
pKd (GORASP2, Q9H8Y8; [1]): below the threshold
pKd (SNTG1, Q9NSN8; [1]): below the threshold
pKd (LIN7C, Q9NUP9; [1]): 3.52
Binder: TQKFRASTAL [FRMPD1, Q5SYB0]

pKd (DLG4_3, P78352; [2]): 3.72
pKd (GRIP2_7, Q9C0E4; [2]): below the threshold
pKd (PDZD2_2, O15018; [2]): 3.75
pKd (APBA1_1, Q02410; [2]): below the threshold
pKd (GIPC2, Q8TF65; [2]): below the threshold
pKd (GRIP2_4, Q9C0E4; [2]): below the threshold
pKd (APBA1_2, Q02410; [2]): 3.54
pKd (IL16_3, Q14005; [2]): below the threshold
pKd (MPDZ_12, O75970; [2]): below the threshold
pKd (DLG1_1, Q12959; [2]): below the threshold
pKd (MAST2, Q6P0Q8; [2]): 5.2
pKd (LNX2_3, Q8N448; [2]): below the threshold
pKd (SCRIB_2, Q14160; [2]): 3.48
pKd (SNTG2, Q9NY99; [2]): 5.24
pKd (DVL3, Q92997; [2]): below the threshold
pKd (FRMPD2_1, Q68DX3; [2]): below the threshold
pKd (Inadl_8, Q8NI35; [2]): 4.36
pKd (DLG4_1, P78352; [2]): below the threshold
pKd (PTPN3, P26045; [2]): below the threshold
pKd (Inadl_10, Q8NI35; [2]): below the threshold
pKd (NHERF4_4, Q86UT5; [2]): below the threshold
pKd (LIMK2, P53671; [2]): below the threshold
pKd (NHERF3_4, Q5T2W1; [2]): below the threshold
pKd (GRIP1_5, Q9Y3R0; [2]): below the threshold
pKd (GORASP2, Q9H8Y8; [2]): below the threshold
pKd (SNTG1, Q9NSN8; [2]): 4.36
pKd (LIN7C, Q9NUP9; [2]): 3.49
Binder: PTPDLPQTRV [KLHDC7A, Q5VTJ3]

pKd (DLG4_3, P78352; [2]): 4.89
pKd (GRIP2_7, Q9C0E4; [2]): below the threshold
pKd (PDZD2_2, O15018; [2]): 3.81
pKd (APBA1_1, Q02410; [2]): below the threshold
pKd (GIPC2, Q8TF65; [2]): below the threshold
pKd (GRIP2_4, Q9C0E4; [2]): 3.52
pKd (APBA1_2, Q02410; [2]): 3.91
pKd (IL16_3, Q14005; [2]): below the threshold
pKd (MPDZ_12, O75970; [2]): below the threshold
pKd (DLG1_1, Q12959; [2]): 4.32
pKd (MAST2, Q6P0Q8; [2]): 4.83
pKd (LNX2_3, Q8N448; [2]): below the threshold
pKd (SCRIB_2, Q14160; [2]): 3.62
pKd (SNTG2, Q9NY99; [2]): 3.75
pKd (DVL3, Q92997; [2]): below the threshold
pKd (FRMPD2_1, Q68DX3; [2]): below the threshold
pKd (Inadl_8, Q8NI35; [2]): 4.2
pKd (DLG4_1, P78352; [2]): 4.4
pKd (PTPN3, P26045; [2]): 4.98
pKd (Inadl_10, Q8NI35; [2]): below the threshold
pKd (NHERF4_4, Q86UT5; [2]): 3.99
pKd (LIMK2, P53671; [2]): below the threshold
pKd (NHERF3_4, Q5T2W1; [2]): 3.66
pKd (GRIP1_5, Q9Y3R0; [2]): 3.48
pKd (GORASP2, Q9H8Y8; [2]): below the threshold
pKd (SNTG1, Q9NSN8; [2]): below the threshold
pKd (LIN7C, Q9NUP9; [2]): below the threshold
Binder: NTLNRKTTPV [CACNG8, Q8WXS5]
